# Data taken from patent publication US20170152308A1 (Biogen, published 2017).
# Where two headings read alike, the source gives them in different places.
# T1: His-huTDP-43 domain III (amino acid residues 183-273) (human)
# T1 construct: Amino terminal His-tagged fragment, E. coli
# T1 chain: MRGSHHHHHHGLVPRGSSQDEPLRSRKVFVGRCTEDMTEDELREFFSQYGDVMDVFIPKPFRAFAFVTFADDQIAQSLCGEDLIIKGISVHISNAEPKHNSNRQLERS
# T2: His-huTDP-43 domain I (amino acid residues 2-106) (human)
# T2 construct: Amino terminal His-tagged fragment, E. coli; also called N-terminal domain
# T2 chain: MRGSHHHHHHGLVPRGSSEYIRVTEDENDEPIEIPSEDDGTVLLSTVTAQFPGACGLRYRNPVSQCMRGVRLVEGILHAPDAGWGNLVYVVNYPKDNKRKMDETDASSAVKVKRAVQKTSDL
# T3: His-huTDP-43 domain II (amino acid residues 99-204) (human)
# T3 construct: Amino terminal His-tagged fragment, E. coli
# T3 chain: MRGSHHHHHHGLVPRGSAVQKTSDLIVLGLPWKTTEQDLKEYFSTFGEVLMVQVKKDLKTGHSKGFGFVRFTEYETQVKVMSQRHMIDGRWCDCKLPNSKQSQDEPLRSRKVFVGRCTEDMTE
# B1: NI-205.98H6 (antibody, human IgG1, V domains shown)
# VH: EVQLLESGGALVQPGGSLRLSCAASGLTFSRHAFSWVRQAPGKGLEWVAISSGSGGNTYYAASVKGRFTISRDESKNTLYLQMNSLRVEDTALYYCAKEVLEWSLLSRYMDVWGKGTTVTVSS
# VL: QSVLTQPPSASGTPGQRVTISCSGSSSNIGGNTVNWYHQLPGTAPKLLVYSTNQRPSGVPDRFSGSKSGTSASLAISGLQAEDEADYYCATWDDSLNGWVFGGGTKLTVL
# notes: Human-derived
# B2: NI-205.58E11 (antibody, human IgG1, V domains shown)
# VH: EVQLLESGGGLVQPGGSLRLSCAASGFTFSSYSMSWVRQAPGKGLEWVATVGYGGTIYYADSVKGRFTISRDNSKNTLYLEMNSLRAEATAVYYCAKANYGGNRFGLDVWGQGTTVTVSS
# VL: QSALTQPPSASGSPGQSVTISCTGTSSDVGGYNYVSWYQHQPGKAPKLMIYEVSKRPSGVPDRFSGSKSGNTASLTVSGLQAEDEADYYCSSYAGSNNLGVFGTGTEVTVL
# notes: Human-derived
# B3: NI-205.68G5 (antibody, human IgG1, V domains shown)
# VH: QVQLVESGGGVVQPGRSLRLSCAASGFTFSSYGMHWVRQAPGKGLEWVAIIYYDSSQRYYADSVKGRFTISRDNSKNALYLQMNSLRAEDTALYYCARDLPFHYHRSASFAPSDTWGQGTLVTVSS
# VL: EIVLTQSPGTLSLSPGERATLSCRASQAVTNNYLAWYQQKPGQAPRLLVYAASSRATGIPDRFYGSGSGADFTLTISRLEPEDFAVYYCQQYGTSPITFGQGTRLEIK
# notes: Human-derived
# B4: NI-205.20A1 (antibody, V domains shown)
# VH: EVQLVESGGGLVQPGGSLRLSCAASGFTFSSYRMNWVRQAPGKGLEWVSYISTSSSTIYYADSVKGRFTISRDNAKNSLYLQMNSLRAEDTAVYYCARAFDYWGQGTLVTVSS
# VL: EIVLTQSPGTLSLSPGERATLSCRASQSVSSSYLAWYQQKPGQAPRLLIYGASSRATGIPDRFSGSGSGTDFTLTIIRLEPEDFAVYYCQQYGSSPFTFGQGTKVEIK
# notes: Human-derived
# B5: NI-205.38H2 (antibody, human IgG1, V domains shown)
# VH: EVQLVESGGDLVQPGGSLRLSCTASGFNLGDYWMHWVRQVPGKGLVWVSRISSDGASVSYADFVEGRFTISRGNARNTLFLELNSLRLDDTAVYYCAMGVVWGQGTLVTVSS
# VL: SYELTQPPSVSVSPGQTATISCSGDALPKRYAYWYKQKSGQVPVLIIYEDNKRPSGIPARFSGSSSGTMATLTITGAQVDDEADYYCYSSDNSDTYSVFGGGTKLTVL
# notes: Human-derived
# B6: NI-205.31C11 (antibody, human IgG1, V domains shown)
# VH: QVQLVESGGGVVQPGRSLRLSCVASGFTFDNYGMHWVRQAPGKGLEWLAVISYGGDHQFYGDSVKDRFTISRDNSKNTAYLQMHSLRPDDTAVYYCATGVTPDFWGQGTLVTVSS
# VL: DVVMTQSPLSLPVTLGQPASISCRSSQSLVHSDGNTYLNWFQQRPGQSPRRLIYKVSHRDSGVPDRFSGSGSGTDFTLKISRVEAEDVGVYYCLQGTHWPPFTFGQGTKLEIK
# notes: Human-derived
# B7: NI-205.1A9 (antibody, human IgG1, V domains shown)
# VH: QVQLVQSGSELKKPGASVKVSCKASGYTFTSYAMNWVRQAPGQGLEWMGWINTNTGNPTYAQGFTGRFVFSLDTSVSTAYLQISSLKAEDTAVYYCARDRIDGSSWSSWFDPWGQGTLVTVSS
# VL: QSVLTQPPSVSGAPGQRVTISCTGSSSNIGAGYDVHWYQQLPGTAPKLLIYGNSNRPSGVPDRFSGSKSGTSASLAITGLQAEDEADYYCQSFDSSLSSSVFGGGTKLTVL
# notes: Human-derived
# Assays:
# [1] = target: T1, His-huTDP-43 domain III (amino acid …); test: direct ELISA, coated antigen
# [2] = target: T4, 6xHis-SUMO-TDP-43 (220-414) (human, UniProt Q13148 220-414); test: capture ELISA, antigen held by anti-6xHis antibody
# T4 construct: Captured on the plate by an anti-6xHis antibody; also called 6xHis/SUMO tagged truncated TDP-43; not shown: N-terminal 6xHis and SUMO tags from a modified pET19-b vector
# Experimental: (§1) Non-specific binding sites were blocked for 1 hr at RT with PBS containing 1% BSA (Sigma) and 0.05% Tween-20 (Fisher Scientific). 6×His-SUMO-TDP43 proteins at a concentration of 1.7 μM were allowed to bind to antibody-coated plates for 1 hr at RT in PBS buffer containing 1% BSA, 300 mM arginine and 0.1% PEG 5000, pH 7.5. Plates were incubated for 1 hr at RT with human antibodies of present invention, titrated in a three-fold dilution series, followed by HRP conjugated anti-human IgG Fc γ (Jackson ImmunoResearch) in PBST containing 1% BSA. HRP activity was measured in a standard colorimetric assay. EC₅₀ values were calculated using a four-parameter logistic curve fit on Softmax pro software (Molecular Devices).
# (§2) We measured the binding affinity of the human-derived TDP-43 specific antibodies provided herein to properly folded 6×His/SUMO tagged TDP-43 using a capture ELISA in which native TDP-43 was immobilized without direct adsorption on the surface of the ELISA plate. This was achieved by immobilizing an anti 6×His antibody which then captured native TDP-43. […] After this immobilization step, binding by human antibodies was tested in regular buffers without interference of TDP-43 aggregation.
# [3] = target: T5, 6xHis-SUMO-TDP-43 (1-414), properly folded full length (human, UniProt Q13148 1-414); test: capture ELISA, antigen held by anti-6xHis antibody
# T5 construct: Purified with KSCN and arginine, monomeric; captured on the plate by an anti-6xHis antibody; also called folded full-length TDP-43; 6xHis/SUMO tagged full length TDP-43; not shown: N-terminal 6xHis and SUMO tags from a modified pET19-b vector
# Experimental: as §1, §2
# [4] = target: T6, recombinant full-length His-tagged human TDP-43 (2-414) (human, UniProt Q13148 2-414); test: direct ELISA, coated antigen
# T6 construct: Amino terminal His tag, made in E. coli, purified in 8 M urea; also called full length TDP-43; full-length TDP-43
# Experimental: (§3) The half maximal effective concentration (EC₅₀) of the human-derived TDP-43-specific antibodies for human TDP-43 and their target target-specificity was determined substantially as described in Example 2 above. Briefly, 96 well microplates (Corning) were coated with recombinant full length TDP-43 (Biogen Idec, USA), Escherichia coli extract and BSA (Sigma, Buchs, Switzerland), diluted to a concentration of 5 μg/ml in carbonate ELISA coating buffer (pH 9.6) overnight at 4° C. […] Non-specific binding sites were blocked for 1 hr. at room temperature with PBS containing 2% BSA (Sigma, Buchs, Switzerland). Human TDP-43-specific antibodies were diluted to the indicated concentrations and incubated 1 hr. at room temperature. Binding was determined using a donkey anti-human IgGγ-specific secondary antibody conjugated with HRP (Jackson ImmunoResearch, USA), followed by measurement of HRP activity in a standard colorimetric assay. EC₅₀ values were estimated by a non-linear regression using GraphPad Prism software (San Diego, USA).
# [5] = target: T2, His-huTDP-43 domain I (amino acid …); test: direct ELISA, TDP-43 fragments coated at 6.6 ug/ml, OD 450
# Experimental: (§4) Non-specific binding sites were blocked for 1 hr. at room temperature with PBST containing 2% BSA (Sigma, Buchs, Switzerland). Antibodies were incubated 1 hr. at room temperature. Binding was determined using either a donkey anti-human IgGγ-specific antibody conjugated with HRP (Jackson ImmunoResearch, USA) or a goat-anti mouse IgG (H+L)-specific secondary antibody conjugated with HRP (Jackson ImmunoResearch, USA)., followed by measurement of HRP activity in a standard colorimetric assay.
# [6] = target: T7, TDP-43 in human FTLD-U (and ALS) patient tissue sections (human, UniProt Q13148 1-414, limits assumed); test: immunohistochemistry, FTLD-U case hippocampus
# T7 construct: Target of immunohistochemistry; the forms present are not defined; also called pathologic TDP-43; cytoplasmic, nuclear, neuritic TDP-43 in FTLD-U case tissue
# [7] = target: T6, recombinant full-length His-tagged …; test: direct ELISA, coated antigen; remark: listed apart in the source
# Experimental: as §3
# [8] = target: T1, His-huTDP-43 domain III (amino acid …); test: Western blot
# Experimental: (§5) Non-specific binding sites were blocked for 1 hr. at room temperature with PBST containing 2% BSA (Sigma, Buchs, Switzerland). Blots were incubated overnight with primary antibodies (10 nM) followed by either a donkey anti-human IgGγ-specific secondary antibody conjugated with HRP (Jackson ImmunoResearch, USA) or a goat-anti mouse IgG (H+L)-specific secondary antibody conjugated with HRP (Jackson ImmunoResearch, USA). Blots were developed using ECL and ImageQuant 350 detection (GE Healthcare, Otelfingen, Switzerland).
# (§6) Commercially available TDP-43 specific antibody TARDBP (M01), clone 2E2-D3 (Abnova, Taiwan) was used as positive control for human TDP-43 detection whereas, an anti-human IgG Fcγ-specific antibody was used as a negative control. Binding of the human-derived antibodies to specific TDP-43 domains was determined by Western Blot analysis.
# [9] = target: T8, His-huTDP-43 domain IV (amino acid residues 258-414) (human, UniProt Q13148 258-414); test: Western blot
# T8 construct: Amino terminal His-tagged fragment, E. coli, solubilized in 8 M urea; also called Glycine-rich domain
# Experimental: as §5, §6
# [10] = target: T2, His-huTDP-43 domain I (amino acid …); test: Western blot
# Experimental: as §5, §6
# [11] = target: T3, His-huTDP-43 domain II (amino acid …); test: Western blot
# Experimental: as §5, §6
# [12] = target: T3, His-huTDP-43 domain II (amino acid …); test: direct ELISA, coated antigen; direct ELISA, domain coated at 6.6 ug/ml (Example 7, FIG. 5H)
# Experimental: as §4
# Binding of the human-derived antibodies was determined by direct ELISA.
# [13] = target: T1, His-huTDP-43 domain III (amino acid …); test: direct ELISA, TDP-43 fragments coated at 6.6 ug/ml, OD 450
# Experimental: as §4
# [14] = target: T8, His-huTDP-43 domain IV (amino acid …); test: as above
# Experimental: as §4
# [15] = target: T3, His-huTDP-43 domain II (amino acid …); test: direct ELISA, coated antigen
# [16] = target: T1, His-huTDP-43 domain III (amino acid …); test: Western blot, 300 ng recombinant protein per lane, primary antibody 10 nM
# Experimental: as §5
# [17] = target: T8, His-huTDP-43 domain IV (amino acid …); test: as above
# Experimental: as §5
# T4 sequence (Q13148 220-414): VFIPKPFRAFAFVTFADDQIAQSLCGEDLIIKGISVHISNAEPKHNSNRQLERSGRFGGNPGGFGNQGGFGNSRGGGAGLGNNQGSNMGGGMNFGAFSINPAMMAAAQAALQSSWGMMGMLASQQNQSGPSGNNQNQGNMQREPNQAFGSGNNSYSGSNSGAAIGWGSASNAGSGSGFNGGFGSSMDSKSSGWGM
# T8 sequence (Q13148 other isoform, or with tags, fused parts or gaps limits assumed): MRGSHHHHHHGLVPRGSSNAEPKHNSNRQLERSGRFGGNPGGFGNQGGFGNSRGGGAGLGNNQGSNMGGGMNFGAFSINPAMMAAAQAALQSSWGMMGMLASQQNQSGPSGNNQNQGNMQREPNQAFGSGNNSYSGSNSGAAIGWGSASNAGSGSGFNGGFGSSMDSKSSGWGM
# T5 sequence (Q13148 whole entry): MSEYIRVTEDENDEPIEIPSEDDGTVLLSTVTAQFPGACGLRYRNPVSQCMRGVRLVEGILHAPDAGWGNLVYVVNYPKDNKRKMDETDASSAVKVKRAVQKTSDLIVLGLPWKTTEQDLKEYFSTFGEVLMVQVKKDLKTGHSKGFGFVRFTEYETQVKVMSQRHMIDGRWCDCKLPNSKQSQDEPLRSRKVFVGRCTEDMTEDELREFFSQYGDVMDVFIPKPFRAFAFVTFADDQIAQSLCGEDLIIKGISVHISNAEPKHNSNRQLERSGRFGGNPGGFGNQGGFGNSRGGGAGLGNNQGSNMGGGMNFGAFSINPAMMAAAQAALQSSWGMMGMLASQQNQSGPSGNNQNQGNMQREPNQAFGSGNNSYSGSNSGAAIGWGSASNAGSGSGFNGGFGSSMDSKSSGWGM
# T7 sequence (Q13148 whole entry): as above
binder,measurement,setting,value
B1,binding result,[1],binds
same,EC50,[2],20 nM
same,EC50,[3],46 nM
same,EC50,[4],2.6 nM
same,binding result,[5],no binding
B2,binding result,[6],no binding (tested: 50 nM)
same,binding result,[3],no binding
same,binding result,[4],no binding
B3,EC50,[7],> 100 nM
same,binding result,[8],no binding (tested: 10 nM)
same,binding result,[9],no binding (tested: 10 nM)
same,binding result,[10],no binding (tested: 10 nM)
same,binding result,[11],no binding (tested: 10 nM)
same,EC50,[4],> 100 nM
B4,binding result,[6],no binding (tested: 50 nM)
same,binding result,[8],no binding (tested: 10 nM)
same,binding result,[9],no binding (tested: 10 nM)
same,binding result,[10],no binding (tested: 10 nM)
same,binding result,[11],no binding (tested: 10 nM)
same,binding result,[3],no binding
same,binding result,[4],no binding
B5,binding result,[12],binds
same,binding result,[2],no binding
same,EC50,[3],> 120 nM
same,EC50,[4],8.2 nM
same,binding result,[13],no binding
same,binding result,[14],no binding
same,binding result,[5],no binding
B6,binding result,[15],binds
same,binding result,[2],no binding
same,EC50,[3],21.1 nM
same,EC50,[4],11 nM
same,binding result,[16],no binding (tested: 10 nM)
same,binding result,[17],no binding (tested: 10 nM)
same,binding result,[5],no binding
B7,binding result,[15],binds
same,binding result,[2],no binding
same,EC50,[3],> 98 nM
same,EC50,[4],1 nM
same,binding result,[13],no binding
same,binding result,[14],no binding
same,binding result,[5],no binding
